# T1: ATXN2L (UniProt Q8WWM7 1-1075)
# T1 construct: Endogenous protein found in the co-IP by mass spectrometry; also called NP_009176.2
# T1 sequence (looked up): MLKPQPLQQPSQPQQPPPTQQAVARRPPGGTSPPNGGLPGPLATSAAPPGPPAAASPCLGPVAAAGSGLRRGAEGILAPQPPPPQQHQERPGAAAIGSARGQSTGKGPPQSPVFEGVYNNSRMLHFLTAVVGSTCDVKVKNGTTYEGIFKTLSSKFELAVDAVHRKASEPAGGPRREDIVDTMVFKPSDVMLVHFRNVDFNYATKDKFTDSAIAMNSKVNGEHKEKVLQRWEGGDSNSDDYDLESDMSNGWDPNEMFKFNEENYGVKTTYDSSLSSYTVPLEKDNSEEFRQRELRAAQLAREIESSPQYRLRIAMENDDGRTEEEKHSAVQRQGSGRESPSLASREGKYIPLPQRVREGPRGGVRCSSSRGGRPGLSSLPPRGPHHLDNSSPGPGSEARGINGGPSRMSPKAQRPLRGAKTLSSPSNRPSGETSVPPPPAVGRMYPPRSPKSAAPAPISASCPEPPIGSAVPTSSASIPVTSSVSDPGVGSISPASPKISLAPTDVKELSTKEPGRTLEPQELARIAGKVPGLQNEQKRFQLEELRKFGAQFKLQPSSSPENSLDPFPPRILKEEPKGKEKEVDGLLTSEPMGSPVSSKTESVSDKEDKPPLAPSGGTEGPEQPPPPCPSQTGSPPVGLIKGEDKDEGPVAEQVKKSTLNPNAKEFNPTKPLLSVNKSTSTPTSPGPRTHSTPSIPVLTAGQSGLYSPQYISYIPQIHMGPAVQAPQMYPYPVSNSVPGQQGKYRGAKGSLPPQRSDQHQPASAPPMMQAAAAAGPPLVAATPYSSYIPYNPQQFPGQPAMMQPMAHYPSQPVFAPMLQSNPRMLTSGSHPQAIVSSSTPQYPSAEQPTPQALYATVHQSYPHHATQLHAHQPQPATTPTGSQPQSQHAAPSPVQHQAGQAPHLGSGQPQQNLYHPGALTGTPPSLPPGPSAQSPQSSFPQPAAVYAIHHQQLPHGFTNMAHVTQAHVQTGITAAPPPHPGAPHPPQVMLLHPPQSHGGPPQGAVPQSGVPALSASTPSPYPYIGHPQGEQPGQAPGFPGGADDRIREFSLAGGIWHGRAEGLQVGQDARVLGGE
# Legend:
# Assay in all cases: co-IP with anti-FLAG, mass spectrometry; N-FLAG B3GNT2
# [1] = target: T2, RCC2 (UniProt Q9P258 1-522)
# T2 construct: Endogenous protein found in the co-IP by mass spectrometry; also called NP_061185.1
# Description: (§1) Cells were plated in 10-cm cell culture dishes and grown to 60-80% confluency. For each condition, two biological replicates were harvested for co-IP. Cells were washed with PBS and 4 mL of lysis buffer (20 mM HEPES, 1% Triton X-100, 150 mM NaCl, 1 mM EDTA, and 10% glycerol) containing protease inhibitor cocktail was added. Cells were scraped and lysate was incubated at 4° C. under rotary agitation for 1 h. Lysate was centrifuged at 14,000×g for 10 min at 4° C. Supernatant was transferred to a new tube and an aliquot was taken as the input. […] For Western blots, 10 μg/mL Chicken Anti-FLAG (Aves labs ET-DY100) and IgY control (R&D Systems AB-101-C) antibodies were biotinylated (Thermo Fisher Scientific 90407) and added to the respective conditions. Lysates with antibodies were incubated at 4° C. under rotary agitation overnight. For each mL of lysate, 50 μL of Pierce Protein A/G Magnetic Beads (Mass spectrometry; Thermo Fisher Scientific 88803) or Pierce Streptavidin Magnetic Beads (Western blot; Thermo Fisher Scientific 88817) was washed twice with lysis buffer. Lysates with antibodies were added to the beads and incubated at 4° C. under rotary agitation for 4 h. Beads were washed with lysis buffer 3 times and resuspended in lysis buffer for storage.
# (§2) Magnetic beads were resuspended in 100 mM Tris pH 7.8, reduced, alkylated and digested with trypsin at 37° ° C. overnight. This solution was subjected to solid phase extraction to concentrate the peptides and remove unwanted reagents followed by injection onto a Shimadzu HPLC with fraction collector. Eight fractions were collected and after concentration were injected on a Waters NanoAcquity HPLC equipped with a self-packed Aeris 3 μm C18 analytical column 0.075 mm by 20 cm, (Phenomenex). Peptides were eluted using standard reverse-phase gradients. The effluent from the column was analyzed using a Thermo Orbitrap Elite mass spectrometer (nanospray configuration) operated in a data dependent manner for 54 minutes. The resulting fragmentation spectra were correlated against the known database using Proteome Discover 1.4 (Thermo Fisher Scientific).
# [2] = target: T3, TPI1 (UniProt P60174 2-249)
# T3 construct: Endogenous protein found in the co-IP by mass spectrometry; also called NP_000356.1 (+2)
# Description: as §1, §2
# [3] = target: T4, LTF (UniProt P02788 20-710, limits assumed)
# T4 construct: Protein found in the co-IP by mass spectrometry; also called NP_001308051.1
# Description: as §1, §2
# [4] = target: T5, HBA1 (UniProt P69905 2-142)
# T5 construct: Protein found in the co-IP by mass spectrometry; also called NP_000549.1
# Description: as §1, §2
# [5] = target: T1, ATXN2L
# Description: as §1, §2
# [6] = target: RPL11 (UniProt P62913 2-177)
# Description: as §1, §2
# T4 sequence (P02788 20-710 limits assumed): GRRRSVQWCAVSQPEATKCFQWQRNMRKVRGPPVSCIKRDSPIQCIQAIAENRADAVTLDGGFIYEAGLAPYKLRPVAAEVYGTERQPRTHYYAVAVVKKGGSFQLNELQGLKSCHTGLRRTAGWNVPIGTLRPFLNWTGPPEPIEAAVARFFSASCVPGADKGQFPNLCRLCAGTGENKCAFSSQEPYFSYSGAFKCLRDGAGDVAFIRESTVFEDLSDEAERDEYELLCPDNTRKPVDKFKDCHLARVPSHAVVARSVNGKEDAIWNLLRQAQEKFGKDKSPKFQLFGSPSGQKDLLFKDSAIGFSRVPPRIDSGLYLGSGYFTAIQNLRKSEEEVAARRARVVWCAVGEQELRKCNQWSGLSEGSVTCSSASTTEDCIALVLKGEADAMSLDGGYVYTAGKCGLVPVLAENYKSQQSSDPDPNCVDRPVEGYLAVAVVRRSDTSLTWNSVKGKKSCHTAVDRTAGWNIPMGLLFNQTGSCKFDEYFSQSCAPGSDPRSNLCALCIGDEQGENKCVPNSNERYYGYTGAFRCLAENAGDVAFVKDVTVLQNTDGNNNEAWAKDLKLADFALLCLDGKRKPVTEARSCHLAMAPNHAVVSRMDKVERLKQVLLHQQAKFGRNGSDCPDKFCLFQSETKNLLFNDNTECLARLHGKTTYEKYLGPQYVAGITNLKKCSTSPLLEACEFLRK
# T5 sequence (P69905 2-142 limits assumed): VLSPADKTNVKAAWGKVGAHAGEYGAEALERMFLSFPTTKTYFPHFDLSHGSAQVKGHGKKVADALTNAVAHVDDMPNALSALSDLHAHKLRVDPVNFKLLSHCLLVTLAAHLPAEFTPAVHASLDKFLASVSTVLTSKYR
# T3 sequence (P60174 2-249 limits assumed): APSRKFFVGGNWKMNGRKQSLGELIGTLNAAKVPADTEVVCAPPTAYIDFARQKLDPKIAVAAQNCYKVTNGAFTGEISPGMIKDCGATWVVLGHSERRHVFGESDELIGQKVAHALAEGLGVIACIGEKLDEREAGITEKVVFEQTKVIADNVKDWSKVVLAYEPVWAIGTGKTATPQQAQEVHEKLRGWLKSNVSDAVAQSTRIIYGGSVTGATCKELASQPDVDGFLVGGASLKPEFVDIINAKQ
# T2 sequence (Q9P258 whole entry): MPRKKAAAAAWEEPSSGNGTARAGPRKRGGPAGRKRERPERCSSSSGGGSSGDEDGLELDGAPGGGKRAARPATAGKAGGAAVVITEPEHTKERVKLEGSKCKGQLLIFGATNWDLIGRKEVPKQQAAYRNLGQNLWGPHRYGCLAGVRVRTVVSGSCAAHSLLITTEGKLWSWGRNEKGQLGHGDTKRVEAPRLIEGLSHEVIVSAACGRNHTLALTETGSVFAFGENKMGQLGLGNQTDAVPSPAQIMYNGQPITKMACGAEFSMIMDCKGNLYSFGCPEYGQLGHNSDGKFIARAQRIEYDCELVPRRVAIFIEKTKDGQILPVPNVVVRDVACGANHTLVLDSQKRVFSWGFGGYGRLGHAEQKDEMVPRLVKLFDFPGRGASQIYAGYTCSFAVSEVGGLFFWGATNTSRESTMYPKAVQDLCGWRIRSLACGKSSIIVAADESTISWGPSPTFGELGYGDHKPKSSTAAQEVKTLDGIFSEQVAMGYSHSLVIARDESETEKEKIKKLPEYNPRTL
binder,measurement,setting,value
"N-terminal FLAG tagged B3GNT2 (enzyme, human, UniProt Q9NY97 1-397, looked up, FLAG-tagged ORF overexpressed in cells; bait of the anti-FLAG co-IP; also called N-FLAG B3GNT2; N-term FLAG; not shown: FLAG tag at the N-terminus) MSVGRRRIKLLGILMMANVFIYFIMEVSKSSSQEKNGKGEVIIPKEKFWKISTPPEAYWNREQEKLNRQYNPILSMLTNQTGEAGRLSNISHLNYCEPDLRVTSVVTGFNNLPDRFKDFLLYLRCRNYSLLIDQPDKCAKKPFLLLAIKSLTPHFARRQAIRESWGQESNAGNQTVVRVFLLGQTPPEDNHPDLSDMLKFESEKHQDILMWNYRDTFFNLSLKEVLFLRWVSTSCPDTEFVFKGDDDVFVNTHHILNYLNSLSKTKAKDLFIGDVIHNAGPHRDKKLKYYIPEVVYSGLYPPYAGGGGFLYSGHLALRLYHITDQVHLYPIDDVYTGMCLQKLGLVPEKHKGFRTFDIEEKNKNNICSYVDLMLVHSRKPQEMIDIWSQLQSAHLKC",co-IP mass spectrometry count,[1],0
same,co-IP mass spectrometry count,[2],3
same,co-IP mass spectrometry count,[3],8
same,co-IP mass spectrometry count,[4],3
same,co-IP mass spectrometry count,[5],5
same,co-IP mass spectrometry count,[6],5

# Source: patent US20240261333A1 (published 2024)
